Experimental findings from patent publication US11535650 (RA PHARMACEUTICALS, dated 2022) are described below.

Starred links: 1 amine or outer side, 2 acyl side, 3 side chain; linkers in the order of their positions; H or OH if unused. Positions of bridges follow the written chain, without caps; N, C: chain ends. Non-standard residues stand in square brackets, D forms with d. Primed or numbered codes have the meaning given here. No end group written: not given here. *: point of attachment. mXylyl(3) = bridging moiety between the two residues given in brackets; Phe(3-CH2NH2) = O=C([C@H](Cc1cccc(CN[*:3])c1)N[*:1])[*:2]; mXylyl = bridging moiety between residues (mXylyl(i,j)); Trp(7-aza) = N[C@@H](Cc1c[nH]c2ncccc12)C(=O)O; mXylyl(4) = bridging moiety between residues; hPhe(3-Cl) = N[C@@H](CCc1cccc(Cl)c1)C(=O)O; ivDde = CC(C)CC(=C1C(=O)CC(C)(C)CC1=O)*; 2Nal = N[C@@H](Cc1ccc2ccccc2c1)C(=O)O; hPhe = N[C@@H](CCc1ccccc1)C(=O)O; NMeD = CN[C@@H](CC(=O)O)C(=O)O; dChg = N[C@@H](C(=O)O)C1CCCCC1; Chg = N[C@H](C(=O)O)C1CCCCC1; Phg = N[C@H](C(=O)O)c1ccccc1; Tle = CC(C)(C)[C@H](N)C(=O)O; NMeS = CN[C@@H](CO)C(=O)O; Ac5c = NC1(C(=O)O)CCCC1; Nva = CCC[C@H](N)C(=O)O; Thp = NC1(C(=O)O)CCOCC1; Aib = CC(C)(N)C(=O)O Some results are limits rather than exact numbers.

The target in test [1] is T1, human C5 protein (human, UniProt P01031 19-673; P01031 678-1676). Description: cell-based or functional assay.
Test [2] has as its target T1, human C5 protein. Description: cell-based or functional assay. The source holds these as a separate data set.
Test [3] concerns the target T1, human C5 protein. Description: competitive fluorescence polarization vs probe R3076, average of two experiments. The protocol:
(§1) Test articles listed in Table 7 were subsequently diluted in DMSO then assay buffer, comprising 10 2-fold dilutions and were then added to the assay plate in triplicate, rapidly. The assay plate was then incubated in the Paradigm (Molecular Devices, Sunnyvale, Calif.) plate reader for 60 minutes at 25° C.
(§2) After incubation for 60 minutes, the plate was read using the Paradigm FP protocol (Molecular Devices, Sunnyvale, Calif.) and raw polarization values were imported into Graphpad Prism.

Test [4] addresses T1, human C5 protein. Description: competitive fluorescence polarization vs probe R3076, Exp 1. As for the experimental part: as §1, §2
On the technique in general: Fluorescence polarisation rises when a labelled molecule tumbles more slowly, as on binding a larger partner.

The target of test [5] is T1, human C5 protein. Description: competitive fluorescence polarization vs probe R3076, Exp 2. As for the experimental part: as §1, §2

A word on the IC50: it is the point on the concentration scale where inhibition reaches its midpoint. A lower IC50 goes with greater potency in that assay. By Ki is commonly meant a measure of affinity in units of concentration, obtained from inhibition or displacement. Lower therefore signals higher affinity.

B1: R3181 (peptide)
peptide: Ac-CVERFCD[Tle]Y[Phe(3-CH2NH2)]EYP[Chg][Nva]
modifications: linker 1-6 via mXylyl(3)
For B1, the “Avg. IC50, hemolysis assay (C5 depleted sera + purified human C5)” value (shortened to “Avg. IC50, hemolysis assay”) with human C5 protein [1] was 1500 nM.

B2: R3197 (peptide)
peptide: Ac-KVERFD[NMeD][Tle]YWEYP[Chg]K(ivDde)
modifications: lactam 1-6
For the molecule B2, the “Avg. IC50, hemolysis assay” value with human C5 protein [1] was found to be 4 nM.

B3: R3177 (peptide)
peptide: Ac-CVERFCD[Tle]Y[Trp(7-aza)]EWP[Chg][Nva]
modifications: linker 1-6 via mXylyl(3)
On to B3, for which the “Avg. IC50, hemolysis assay” value in the test with human C5 protein [1] came to 12 nM.

B4: R3098 (peptide)
peptide: Ac-[Nva]C[Phg]T[Trp(7-aza)]QY[NMeS]AC[Nva]-NH2
modifications: linker 2-10 via mXylyl(4)
For the molecule B4, the “Avg. IC50, human hemolysis assay (complete human sera)” value (from here on “Avg. IC50, human hemolysis assay”) with human C5 protein [2] is > 100000 nM.

B5: R3189 (peptide)
peptide: Ac-CAERFCD[Tle]Y[Trp(7-aza)]EYP[Phg]K(C16)
modifications: linker 1-6 via mXylyl(3)
Regarding B5, the “Avg. IC50, hemolysis assay” value with human C5 protein [1] came to 81.5 nM.

B6: R3199 (peptide)
peptide: [(desamino)Cys][dA]ERFC[NMeD][Tle]Y[Trp(7-aza)]EYP[Chg]K(C16)
modifications: bridge 1-6
As for B6, the “Avg. IC50, hemolysis assay” value in the test with human C5 protein [1] is 112 nM.

B7: R3097 (peptide)
peptide: Ac-[Nva]C[Phg]T[Trp(7-aza)]DY[NMeS]AC[Nva]-NH2
modifications: linker 2-10 via mXylyl(4)
Turning to B7, in the test with human C5 protein [2], the “Avg. IC50, human hemolysis assay” value was > 100000 nM.

B8: R3011 (peptide)
peptide: Ac-[Nva]C[Phg]T[Trp(7-aza)]EY[NMeS]HC[Nva]P-NH2
modifications: linker 2-10 via mXylyl
In the case of B8, the “Avg. IC50, human hemolysis assay” value in the test with human C5 protein [2] was found to be 112 nM. In addition, the results for the half-maximal inhibitory concentration (IC50) with human C5 protein [3], in the test with human C5 protein [4] and with human C5 protein [5] were 278 nM, 295 nM and 261 nM, respectively. Also, the Ki turned out to be 80 nM in the test with human C5 protein [3], 73.2 nM with human C5 protein [4] and 86.9 nM with human C5 protein [5].

B9: R3192 (peptide)
peptide: Ac-KVERFD[NMeD][Tle]Y[Trp(7-aza)]EYP[Chg]K-NH2
modifications: lactam 1-6
SMILES: CC(=O)N[C@H]1CCCCNC(=O)C[C@@H](C(=O)N(C)[C@@H](CC(=O)O)C(=O)N[C@H](C(=O)N[C@@H](Cc2ccc(O)cc2)C(=O)N[C@@H](Cc2c[nH]c3ncccc23)C(=O)N[C@@H](CCC(=O)O)C(=O)N[C@@H](Cc2ccc(O)cc2)C(=O)N2CCC[C@H]2C(=O)N[C@H](C(=O)N[C@@H](CCCCN)C(N)=O)C2CCCCC2)C(C)(C)C)NC(=O)[C@H](Cc2ccccc2)NC(=O)[C@H](CCCNC(=N)N)NC(=O)[C@H](CCC(=O)O)NC(=O)[C@H](C(C)C)NC1=O
On to B9, for which, in the test with human C5 protein [1], the “Avg. IC50, hemolysis assay” value was 1.5 nM.

B10: R3023 (peptide)
peptide: Ac-YPYC[Phg][Trp(7-aza)][Tle]E[Nva]NY[Nva]E-NH2
SMILES: CCC[C@H](NC(=O)[C@H](Cc1ccc(O)cc1)NC(=O)[C@H](CC(N)=O)NC(=O)[C@H](CCC)NC(=O)[C@H](CCC(=O)O)NC(=O)[C@@H](NC(=O)[C@H](Cc1c[nH]c2ncccc12)NC(=O)[C@@H](NC(=O)[C@H](CS)NC(=O)[C@H](Cc1ccc(O)cc1)NC(=O)[C@@H]1CCCN1C(=O)[C@H](Cc1ccc(O)cc1)NC(C)=O)c1ccccc1)C(C)(C)C)C(=O)N[C@@H](CCC(=O)O)C(N)=O
notes: negative control in the FP assays; also called control polypeptide; scrambled polypeptide variant of R3002
Regarding B10, the “Avg. IC50, human hemolysis assay” value with human C5 protein [2] is > 100000 nM. In addition, the IC50 with human C5 protein [3], with human C5 protein [4] and in the test with human C5 protein [5] was > 1000 nM in each case. In addition, the Ki with human C5 protein [3], with human C5 protein [4] and with human C5 protein [5] was > 1000 nM each time.

B11: R3184 (peptide)
peptide: VERFCDGYWEYPGV
modifications: [cyclo-thioalkyl(1,5)]V-E-R-F-C-D-Tbg-Y-azaTrp-E-Y-P-Chg-Nvl
On to B11, for which, in the test with human C5 protein [1], the “Avg. IC50, hemolysis assay” value is 4 nM.

B12: R3179 (peptide)
peptide: Ac-CVERFCD[Tle]Y[Trp(7-aza)]E[hPhe(3-Cl)]P[Chg][Nva]
modifications: linker 1-6 via mXylyl(3)
For the molecule B12, the “Avg. IC50, hemolysis assay” value with human C5 protein [1] was 83 nM.

B13: R3198 (peptide)
peptide: [(desamino)Cys]VERFC[NMeD][Tle]Y[Trp(7-aza)]EYP[Chg]K(C16)
modifications: bridge 1-6
Turning to B13, the “Avg. IC50, hemolysis assay” value with human C5 protein [1] worked out at 142 nM.

B14: R3185 (peptide)
peptide: Ac-CVERFC[Ac5c][Tle]Y[Trp(7-aza)]EYP[Chg][Nva]
modifications: linker 1-6 via mXylyl(3)
With B14, the “Avg. IC50, hemolysis assay” value with human C5 protein [1] was 12.5 nM.

B15: R3092 (peptide)
peptide: Ac-[Nva]C[Phg]TFEY[NMeS]AC[Nva]-NH2
modifications: linker 2-10 via mXylyl(4)
Consider B15, for which the “Avg. IC50, human hemolysis assay” value with human C5 protein [2] was > 50000 nM.

B16: R3100 (peptide)
peptide: Ac-[Nva]C[Phg]T[Trp(7-aza)]EF[NMeS]AC[Nva]-NH2
modifications: linker 2-10 via mXylyl(4)
In the case of B16, in the test with human C5 protein [2], the “Avg. IC50, human hemolysis assay” value is 626 nM.

B17: R3014 (peptide)
peptide: Ac-C[Phg]T[Trp(7-aza)]EY[NMeS]HC[Nva]P[Nva]-NH2
modifications: linker 1-9 via mXylyl
For B17, the “Avg. IC50, human hemolysis assay” value with human C5 protein [2] came out at 1420 nM. For the same molecule, the IC50 with human C5 protein [3] stood at 6820 nM; with human C5 protein [4] it was 6060 nM; with human C5 protein [5] it was 7580 nM. Besides, the Ki with human C5 protein [3] worked out at 1500 nM; with human C5 protein [4], 1400 nM; with human C5 protein [5], 1580 nM.

B18: R3196 (peptide)
peptide: Ac-KVERFD[NMeD][Tle]YWEYP[Chg]K
modifications: lactam 1-6
Consider B18, for which, in the test with human C5 protein [1], the “Avg. IC50, hemolysis assay” value came out at 3 nM.

B19: R3093 (peptide)
peptide: Ac-[Nva]C[dChg]T[Trp(7-aza)]EY[NMeS]AC[Nva]-NH2
modifications: linker 2-10 via mXylyl(4)
For B19, in the test with human C5 protein [2], the “Avg. IC50, human hemolysis assay” value is > 100000 nM.

B20: R3096 (peptide)
peptide: Ac-[Nva]C[Phg][Aib][Trp(7-aza)]EY[NMeS]HC[Nva]-NH2
modifications: linker 2-10 via mXylyl(3)
As to B20, the “Avg. IC50, human hemolysis assay” value with human C5 protein [2] was > 50000 nM.

B21: R3089 (peptide)
peptide: Ac-[Chg]C[Phg]T[Trp(7-aza)]EY[NMeS]AC[Nva]-NH2
modifications: linker 2-10 via mXylyl(4)
Take B21: the “Avg. IC50, human hemolysis assay” value with human C5 protein [2] was > 15000 nM.

B22: R3194 (peptide)
peptide: Ac-KVERFD[NMeD][Tle]Y[Trp(7-aza)]EYP[Chg]K(C16)-NH2
modifications: lactam 1-6
Take B22: in the test with human C5 protein [1], the “Avg. IC50, hemolysis assay” value came to 15.5 nM.

B23: R3099 (peptide)
peptide: Ac-[Nva]C[Phg]T[Trp(7-aza)]NY[NMeS]AC[Nva]-NH2
modifications: linker 2-10 via mXylyl(4)
For the molecule B23, the “Avg. IC50, human hemolysis assay” value with human C5 protein [2] was > 100000 nM.

B24: R3090 (peptide)
peptide: Ac-[Nva]CFT[Trp(7-aza)]EY[NMeS]AC[Nva]-NH2
modifications: linker 2-10 via mXylyl(4)
Take B24: in the test with human C5 protein [2], the “Avg. IC50, human hemolysis assay” value was > 100000 nM.

B25: R3091 (peptide)
peptide: Ac-[Nva]C[Phg]TWEY[NMeS]AC[Nva]-NH2
modifications: linker 2-10 via mXylyl(4)
On to B25, for which the “Avg. IC50, human hemolysis assay” value with human C5 protein [2] was found to be 483 nM.

B26: R3095 (peptide)
peptide: Ac-[Nva]C[Phg]T[Trp(7-aza)]E[hPhe][NMeS]AC[Nva]-NH2
modifications: linker 2-10 via mXylyl(4)
As for B26, the “Avg. IC50, human hemolysis assay” value in the test with human C5 protein [2] is > 50000 nM.

B27: R3180 (peptide)
peptide: Ac-CVERFCD[Tle]Y[Trp(7-aza)]E[2Nal]P[Chg][Nva]
modifications: linker 1-6 via mXylyl(3)
Regarding B27, the “Avg. IC50, hemolysis assay” value with human C5 protein [1] amounted to 29 nM.

B28: R3195 (peptide)
peptide: Ac-KVERFD[NMeD][Tle]YWEYP[Chg]K(C16)
modifications: lactam 1-6
For the molecule B28, in the test with human C5 protein [1], the “Avg. IC50, hemolysis assay” value came to 62.5 nM.

B29: R3186 (peptide)
peptide: Ac-CVERFC[Thp][Tle]Y[Trp(7-aza)]EYP[Chg][Nva]
modifications: linker 1-6 via mXylyl(3)
In the case of B29, the “Avg. IC50, hemolysis assay” value in the test with human C5 protein [1] was found to be 18 nM.
